In the supplement of paper PMC12764529:
± gives the half width of the 95% confidence interval.

Assay: folding stability dG unfold (combined trypsin and chymotrypsin); higher = more stable
Procedure, shortened: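 K50 was inferred by Bayesian fitting of sequencing counts obtained after protease digestion of designed mini-proteins. Unfolding free energy was derived by comparison with a sequence-predicted unfolded-state K50 and a shared folded-state K50, for each protease or both combined. The mini-proteins were under 80 residues, had no cysteine, were carried in a PA-tagged cDNA display construct, and were kept only if AlphaFold2 dimer inter-PAE exceeded 15.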

In order of rising “folding stability dG unfold” value:
1. SMVTVTFPDASPEEIRAAIEAHPDRDVVLVTAPGKEEELEKILKEYDYTKEEKALPDGRKVRVMKVKVPRSA [r9_1138_JUSTAS]  0.462 ± 0.25 kcal/mol
2. SAGGAPVGKFKFELNFPELGENVRSVEATVDPVKGTVTVNFELPGSGKPLTLTVPVKLVSPDNPELFSAGGS [r8_193_TrMRF]  0.613 ± 0.082 kcal/mol
3. SAMEVVEERELPDGTTVVTIPDPATGDTVVLVTDPEGKITVYTYPSSTGIPTEEVFPDLSVEEAIARLASAG [r14_760_JUSTAS]  0.775 ± 0.058 kcal/mol
4. SAGGSAGGSAWITINDVRDYLKKEGIDPKNMSAEEIASEFKDKWPNVNIEAQPNGSAWIKPSAGGSAGGSAG [r3_375_TrROS]  0.814 ± 0.14 kcal/mol
5. SAGMDDAEAEKLALEEAEKIAKEAGVPEIEVEVERTPSDRWRATIKFPKTGKTYTIELVGDEPSLVEKGSAG [r14_925_JUSTAS]  1.1 ± 0.14 kcal/mol
6. SAGGSAGGSAGKLEVVELEDGYLVVYDPETGLIVLYTPEEVVAELLDAFDPDKPVVVVEFSAGGSAGGSAGG [r11_374_TrMRF]  1.17 ± 0.11 kcal/mol
7. SAGMNPNNPNVKTTTVTYTFPLPATESVEEAVERLKAEAEAAGKPIKTVEVTVERTPEDTVVIKATFVSSAG [r5_65_JUSTAS]  1.59 ± 0.093 kcal/mol
8. SAGGYYKDPNGKPREPVPKVEPKPVTITFPNLTPEQADYLADYLRDLGLEVKYDPENGMLTAEFWIYSAGGS [r16_765_TrROS]  1.71 ± 0.11 kcal/mol
9. SAGGSAGGSEITIFIKGLPDPEAIADQIADAFGYPVKDVDVQRMPNNPWMMITVTYNGKEITISAGGSAGGS [r12_935_TrROS]  1.86 ± 0.083 kcal/mol
10. SAGGSAGGKPPKFKVEVFIFPESNSVLVKIELPNSTLPFFIDKNGKIKGIKIIGDKVFNVSEGLSAGGSAGG [r6_241_TrMRF]  1.96 ± 0.17 kcal/mol
11. SAGGSAMPPVKVEVVEAEPFVVEGEGGLYLVRPFLVRAPDLPRLFLVVLVEDPGEPDVLAEVFDLDSAGGSA [r15_528_TrMRF]  2.37 ± 0.099 kcal/mol
12. SAGGSKEYEVKIVKIKEVKVENGKVYIKLEVEVRDKKTGKLLPSAEELAKELKKKFPNLKIEVKKPSAGGSA [r2_27_TrROS_Hall]  2.42 ± 0.24 kcal/mol
13. SAGGSAGGSAGVTVSLPDGRVVTEVTTLPDGTVVITYTKDGKKYTTTLNGSAPAPTPTLASAGGSAGGSAGG [r17_421_JUSTAS]  2.52 ± 0.086 kcal/mol
14. SNNNEVTIEIMIMFKYPRPEYDPDNGKPEPEPVYFMFPIKIEGKADDPEDAKRAADNILDRFLKDPDYIMSA [r9_77_TrROS]  2.6 ± 0.17 kcal/mol
15. SAGGLTVVSVDPSTNTITIKLGNKDIEITVPPDRPPEVTFTRDPSGTYTITITTEGSTTTYTIPLSQLPSAG [r5_500_JUSTAS]  2.85 ± 0.07 kcal/mol
16. SAGGSAGGSAGGSEEKLKKMKPKKVATYKVKTVTYKKTKDGTWEPTKVEEVEITVYALPSAGGSAGGSAGGS [r4_288_TrROS_Hall]  3.28 ± 0.3 kcal/mol
17. SAGGSADNLMFMFEFEFSFEWSNPDGEPMTMEVPITVMIPIPIPVPKATPEAMKDPEKAKEAQEEASAGGSA [r15_728_TrROS]  3.39 ± 0.32 kcal/mol
18. SMYKVKVKLLITNPKTGEKLEVEVEATLEEAEKLAEELEKKYPELNWKVEIKEIEIYPIPKPVLVKPGEASA [r9_14_TrMRF]  3.46 ± 0.22 kcal/mol
19. SAGGSAGGSAGVNPNLPNYSVVPTTVTVKVLETFTDPQGNSYTREFTLEVETLIVNPPLLSAGGSAGGSAGG [r17_523_JUSTAS]  3.59 ± 0.12 kcal/mol
20. SAGGSAGGSAGGPNLQIMVMQTDNSLTVMIYLPEGWVIVYKITPMKIELEIMPLKDPDDSAGGSAGGSAGGS [r10_1169_TrROS]  4.89 ± 0.28 kcal/mol

Assay: folding stability dG unfold from trypsin proteolysis; higher = more stable
Description: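 Folding stability of de novo designed mini-proteins (<80 aa, no Cys; designed by TrROS, TrMRF, ProteinMPNN and the joint model) was measured by cDNA display proteolysis with trypsin and chymotrypsin. Each protease was used at 11 concentrations in a threefold dilution series plus a no-protease condition. K50 was inferred by Bayesian fitting of sequencing counts, and dG unfold was derived against a sequence-predicted unfolded-state K50 (Tsuboyama et al. method). Sequences shown include variable-length N-terminal GS-type padding (SAGGSAGG...) inside a display construct carrying a PA tag. Rows were kept only if the AF2 dimer inter-PAE was >15, to exclude likely homo-oligomers.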

In order of rising “folding stability dG unfold” value:
1. SAGGSAGGSAGVIDKENDRWYITQETPGGEPKTIPIPWDDIPDLPPENVKEVELMPPDDISAGGSAGGSAGG [r11_779_TrROS]  -0.179 ± 0.031 kcal/mol
2. SAGNPPVTITITINPFRHGDEPMYHVKIKNPGGKEREIPFPPDEFKEQIENEFPNIDEIEVEPMRLPPGSAG [r5_25_TrROS]  0.207 ± 0.14 kcal/mol
3. SAGGSAGGSAGGMILRDPNRDIWTADFPDSSGNLVSSREFPPGEIEEVLAEGNVSAEVLPSAGGSAGGSAGG [r11_159_JUSTAS]  0.362 ± 0.015 kcal/mol
4. SAGGAPVGKFKFELNFPELGENVRSVEATVDPVKGTVTVNFELPGSGKPLTLTVPVKLVSPDNPELFSAGGS [r8_193_TrMRF]  0.37 ± 0.059 kcal/mol
5. SAGGSAGGSSMTLTTLEVNPSVTIEPQPGSIVVKTPVTTLVKAGDTLVTLESESITVLPPDLLSAGGSAGGS [r12_1023_JUSTAS]  0.486 ± 0.048 kcal/mol
6. SAMEVVEERELPDGTTVVTIPDPATGDTVVLVTDPEGKITVYTYPSSTGIPTEEVFPDLSVEEAIARLASAG [r14_760_JUSTAS]  0.645 ± 0.046 kcal/mol
7. SAGGSAGGSAGGSKKIKIKVPPGARVRLKNGKWFSVEDIEKLKELGIKEIEIEKLPPKKSAGGSAGGSAGGS [r4_47_TrROS_Hall]  0.669 ± 0.037 kcal/mol
8. PIIHFRSPEDAEDFVKELVKKIAKEARKNGDPGQPYEIKIPVVWHDEDSGGPHRFPIEIEIRPDGDIKLTFS [r1_316_TrROS]  0.782 ± 0.02 kcal/mol
9. SMVTVTFPDASPEEIRAAIEAHPDRDVVLVTAPGKEEELEKILKEYDYTKEEKALPDGRKVRVMKVKVPRSA [r9_1138_JUSTAS]  0.784 ± 0.14 kcal/mol
10. SAGGSAGGSAWITINDVRDYLKKEGIDPKNMSAEEIASEFKDKWPNVNIEAQPNGSAWIKPSAGGSAGGSAG [r3_375_TrROS]  0.785 ± 0.054 kcal/mol
11. SAGQLPPGETYTAEIEIRKNEPITLEEIAKKLPGYEFDSVKVEPMPDGWTRITITMTPGDVDKIQDAIRSAG [r5_554_TrROS]  0.92 ± 0.044 kcal/mol
12. SAGGSAGGSASPSYLLTVTVYRPGGNPLSRRVFPPSVSPAEVEAWLATLPSDYSWEVSREPVSAGGSAGGSA [r18_431_JUSTAS]  0.957 ± 0.051 kcal/mol
13. SAGMDDAEAEKLALEEAEKIAKEAGVPEIEVEVERTPSDRWRATIKFPKTGKTYTIELVGDEPSLVEKGSAG [r14_925_JUSTAS]  1.01 ± 0.049 kcal/mol
14. SAGGSAGMPDIIYKVKITVTSSGKVTTLDITLPSEEEVKKAIEELKKKGYTNIKPEIEKFLKSELGSAGGSA [r15_1015_JUSTAS]  1.15 ± 0.12 kcal/mol
15. SAGGYYKDPNGKPREPVPKVEPKPVTITFPNLTPEQADYLADYLRDLGLEVKYDPENGMLTAEFWIYSAGGS [r16_765_TrROS]  1.23 ± 0.033 kcal/mol
16. SAGMNPNNPNVKTTTVTYTFPLPATESVEEAVERLKAEAEAAGKPIKTVEVTVERTPEDTVVIKATFVSSAG [r5_65_JUSTAS]  1.34 ± 0.072 kcal/mol
17. SAGGSAGGKPPKFKVEVFIFPESNSVLVKIELPNSTLPFFIDKNGKIKGIKIIGDKVFNVSEGLSAGGSAGG [r6_241_TrMRF]  1.42 ± 0.12 kcal/mol
18. SAGGSAGGSAGKLEVVELEDGYLVVYDPETGLIVLYTPEEVVAELLDAFDPDKPVVVVEFSAGGSAGGSAGG [r11_374_TrMRF]  1.46 ± 0.091 kcal/mol
19. SAGGSAGGSEITIFIKGLPDPEAIADQIADAFGYPVKDVDVQRMPNNPWMMITVTYNGKEITISAGGSAGGS [r12_935_TrROS]  1.58 ± 0.022 kcal/mol
20. SAGDIGRVEARPVPLPGDRPGRVVVVESSVPNLRVLLFRGPEDRWVALVETDGRVEELPLEEALRLLASSAG [r5_157_TrMRF]  1.69 ± 0.043 kcal/mol
21. SNNNEVTIEIMIMFKYPRPEYDPDNGKPEPEPVYFMFPIKIEGKADDPEDAKRAADNILDRFLKDPDYIMSA [r9_77_TrROS]  1.79 ± 0.12 kcal/mol
22. SAGGETLEVKLKNGYLLRIDLETGKVEVRPLKPVKIELKIEVKPPPVEVKLEKEIKLEKKIEVKVEFSAGGS [r16_453_TrROS_Hall]  1.82 ± 0.19 kcal/mol
23. SAGGSAMPPVKVEVVEAEPFVVEGEGGLYLVRPFLVRAPDLPRLFLVVLVEDPGEPDVLAEVFDLDSAGGSA [r15_528_TrMRF]  1.84 ± 0.041 kcal/mol
24. SAGGMSLSDPRDIRKAAKLKEIEILVKELNDKGIEVKLDEISFIEGTEEITAIVTFPDGTKYEITINSAGGS [r8_277_TrMRF]  1.85 ± 0.042 kcal/mol
25. SAGGSAGGSAGGSEKKITVYKDKNGNYLVVIEKGDKPIVIPFPKGASLKEALDIIDKLDSAGGSAGGSAGGS [r4_7_TrMRF]  1.95 ± 0.095 kcal/mol
26. SAGGMKIKKITVEKNPETGELVVTVEVEINGKKYKFTFYKDGTVKVEVEVNGKKVTITLPVEELKKLSAGGS [r8_238_TrROS_Hall]  2.13 ± 0.058 kcal/mol
27. SAGGKTKVINVKVKSIEELLEKLAKLPNVKKVEVKEVNGKKEITIEVDGKKIKITKNKDGYYSIEIFPSAGG [r13_907_TrROS_Hall]  2.16 ± 0.12 kcal/mol
28. SAGGMVEEVKELAKELGFDVEIELTSVYGEKGYVPYKVTFPNGKTYYITFKGSPDEMKKKLRDLLEKSAGGS [r16_153_TrMRF]  2.2 ± 0.058 kcal/mol
29. SAGGSAKIEIIKDPETGTYTIRLEKEIKPGQTLTITDENGETWKITSVSVEEVNGELYVTVKVEKVSAGGSA [r15_838_TrROS_Hall]  2.24 ± 0.048 kcal/mol
30. SAGGSKEYEVKIVKIKEVKVENGKVYIKLEVEVRDKKTGKLLPSAEELAKELKKKFPNLKIEVKKPSAGGSA [r2_27_TrROS_Hall]  2.24 ± 0.13 kcal/mol
31. SAGGSADNLMFMFEFEFSFEWSNPDGEPMTMEVPITVMIPIPIPVPKATPEAMKDPEKAKEAQEEASAGGSA [r15_728_TrROS]  2.39 ± 0.22 kcal/mol
32. SAGGSAGGSAGVTVSLPDGRVVTEVTTLPDGTVVITYTKDGKKYTTTLNGSAPAPTPTLASAGGSAGGSAGG [r17_421_JUSTAS]  2.42 ± 0.083 kcal/mol
33. SAGGSAGGSAGGSEEKLKKMKPKKVATYKVKTVTYKKTKDGTWEPTKVEEVEITVYALPSAGGSAGGSAGGS [r4_288_TrROS_Hall]  2.44 ± 0.07 kcal/mol
34. SAGGLTVVSVDPSTNTITIKLGNKDIEITVPPDRPPEVTFTRDPSGTYTITITTEGSTTTYTIPLSQLPSAG [r5_500_JUSTAS]  2.45 ± 0.052 kcal/mol
35. SMYKVKVKLLITNPKTGEKLEVEVEATLEEAEKLAEELEKKYPELNWKVEIKEIEIYPIPKPVLVKPGEASA [r9_14_TrMRF]  2.45 ± 0.34 kcal/mol
36. SAGMEVKITVEREEDGTLRITITVRPDMTPEELAALLEEELGLEVRVVRDEETGERVLEIEIPLPEELESAG [r5_742_TrROS_Hall]  2.64 ± 0.12 kcal/mol
37. SAGGSAGGSAGGGWIYMVTIEPKEVKRSPDPGGKGRPTFEFEMDITIIWIRVDPEDLDDSAGGSAGGSAGGS [r10_654_TrROS]  2.85 ± 0.13 kcal/mol
38. SAGGSAGGSAGVNPNLPNYSVVPTTVTVKVLETFTDPQGNSYTREFTLEVETLIVNPPLLSAGGSAGGSAGG [r17_523_JUSTAS]  2.89 ± 0.12 kcal/mol
39. SAGGSAGGSAGGPNLQIMVMQTDNSLTVMIYLPEGWVIVYKITPMKIELEIMPLKDPDDSAGGSAGGSAGGS [r10_1169_TrROS]  3.98 ± 0.32 kcal/mol
40. SAGKEIKIRIEVTRKVKNPETGEEVEEKEVVEITLSEEELKKGKSLEELAKELASKYPGAKVKIVEIESAGG [r19_110_TrROS_Hall]  4.43 ± 0.48 kcal/mol
